These results are taken from article PMC9758051.

Test [1] has as its target turkey β1-adrenergic receptor, engineered thermostabilised construct (modified β44-m23) (turkey (M. gallopavo)) (UniProt P07700). In words: native MS; tβ1AR 5 μM with mini-Gs 6 μM, orciprenaline 2 at 250 μM.
Test [2] has the same target. Nature of the test: native MS; tβ1AR 5 μM with mini-Gs 6 μM, isoprenaline derivative 5 at 250 μM.
Test [3] deals with tβ1AR variant with alanine mutations on TM5 (E233A and E236A) (turkey (M. gallopavo)) (UniProt P07700). In words: native MS; tβ1AR with mini-Gα at 1:1.2 molar ratio, 4 °C, at least 20 min, coupling buffer (10 mM HEPES, 10 mM Tris-HCl pH 7.4, 200 mM NaCl, 1 mM MgCl2, 5 mM GDP, 0.05% DDM) with isoprenaline 1 at 25 μM.
The target of test [4] is turkey β1-adrenergic receptor, engineered thermostabilised construct (modified β44-m23) (turkey (M. gallopavo)) (UniProt P07700). In words: native MS; tβ1AR 5 μM with mini-Gs 6 μM, 1-phenyl-2[(propan-2-yl)amino]ethan-1-ol 3 at 250 μM.
In a further test the target is endogenous metal (Zn2+). In words: mass spectrometry (MS) of receptor-mini-Gs complex. The conditions noted are these: metal-binding read on the tβ1AR-mini-Gs complex; mean ± s.d. from three independent experiments; read off a plot.

In test [1], “mini-Gs construct R414, engineered minimal Gα subunit (engineered Gαs)” had a percent reduction of mini-Gs coupling against isoprenaline 1 of 60%. In addition, the percent attenuation of mini-Gs coupling against isoprenaline 1 in test [2] was 75%; in test [4], 90%. Besides, the percent attenuation of coupling against wild-type tβ1AR in test [3] was determined as 21.2%.

Consider “turkey β1-adrenergic receptor, engineered thermostabilised construct (modified β44-m23) (from UniProt P07700) E285A; H286A”, for which, in the test with endogenous metal (Zn2+), the other: inhibition of metal-binding (%) is 11%.
